The values that follow are results of earlier work, collected in US12233109B2, “Long-acting GLP-1r agonist as a therapy of neurological and neurodegenerative conditions” (The Johns Hopkins University, priority 2015, dated 2025).

For the series the following is noted: in vivo.

Turning to “Albiglutide: dipeptidyl peptidase-4-resistant glucagon-like peptide-1 dimer fused to human albumin”, the half-life entry was “four to seven”.
